Laboratory results taken from US6323177, “Interaction of reelin with very low density lipoprotein (VLDL) receptor for screening and therapies” (St. Jude Children's Research Hospital, dated 2001).

Molecular target: Reelin (full length, expressed from pCr1 in 293T cells, conditioned medium) (mouse)
Test: cell binding assay: 293T cells with or without VLDL receptor incubated with Reelin conditioned medium, washed, lysed, Western blot with G10
Protocol: Reelin-VLDL receptor binding assay. 293T cells transfected with or without the VLDL receptor are washed in phosphate buffer saline (PBS) containing divalent cations and distributed into Eppendorf tubes (approximately 10^6 cells/sample). For Reelin binding assays, cells are incubated with conditioned medium containing 20–100 ng of Reelin for 30 min to 2 h at 4° C. or room temperature. Cells are then washed again with PBS and solubilized in […] of TxB buffer (150 mM NaCl, 50 mM Tris-Cl pH7.5, 1% Triton-X, 1 mM EDTA) supplemented with 0.1 mg/ml Aprotinin, with 0.1 mg/m Leupeptin, 20 mM Sodium Fluoride, and 1 mM Sodium Orthovanadate. Cell extracts are clarified by centrifugation at 13,000×g for 10 min at 4° C. and subjected to Western blot analysis to reveal the presence of Reelin retained by the VLDL receptor.
Western blot analysis. Ten µl of cell extract per lane are analyzed by SDS-PAGE on 4–12% minigels (Novex). Proteins are transferred to nitrocellulose membranes and blocked in 3% milk in Tris buffer saline (TBS) for 1 h at room temperature. Proteins bound to the membranes are incubated at 4° C. overnight in antibody diluted in 0.3% milk-TBS supplemented with 0.1% Tween (TBST). Ascites fluids containing the mouse monoclonal G10 antibody (de Bergeyck et al., J. Neurosci. Methods, 82:17–24, 1998) are used at a 1:1000 dilution to detect Reelin. […]

binding result: binds
B1: human very low density lipoprotein (VLDL) receptor, expressed on transfected 293T cells (receptor)
chain: not shown
